Target: FGF receptor/BKL complex (human) (UniProt Q86Z14)
Experiment: cell-based or functional assay

Chain of FGF receptor/BKL complex (human) (Q86Z14 whole entry, one chain of several): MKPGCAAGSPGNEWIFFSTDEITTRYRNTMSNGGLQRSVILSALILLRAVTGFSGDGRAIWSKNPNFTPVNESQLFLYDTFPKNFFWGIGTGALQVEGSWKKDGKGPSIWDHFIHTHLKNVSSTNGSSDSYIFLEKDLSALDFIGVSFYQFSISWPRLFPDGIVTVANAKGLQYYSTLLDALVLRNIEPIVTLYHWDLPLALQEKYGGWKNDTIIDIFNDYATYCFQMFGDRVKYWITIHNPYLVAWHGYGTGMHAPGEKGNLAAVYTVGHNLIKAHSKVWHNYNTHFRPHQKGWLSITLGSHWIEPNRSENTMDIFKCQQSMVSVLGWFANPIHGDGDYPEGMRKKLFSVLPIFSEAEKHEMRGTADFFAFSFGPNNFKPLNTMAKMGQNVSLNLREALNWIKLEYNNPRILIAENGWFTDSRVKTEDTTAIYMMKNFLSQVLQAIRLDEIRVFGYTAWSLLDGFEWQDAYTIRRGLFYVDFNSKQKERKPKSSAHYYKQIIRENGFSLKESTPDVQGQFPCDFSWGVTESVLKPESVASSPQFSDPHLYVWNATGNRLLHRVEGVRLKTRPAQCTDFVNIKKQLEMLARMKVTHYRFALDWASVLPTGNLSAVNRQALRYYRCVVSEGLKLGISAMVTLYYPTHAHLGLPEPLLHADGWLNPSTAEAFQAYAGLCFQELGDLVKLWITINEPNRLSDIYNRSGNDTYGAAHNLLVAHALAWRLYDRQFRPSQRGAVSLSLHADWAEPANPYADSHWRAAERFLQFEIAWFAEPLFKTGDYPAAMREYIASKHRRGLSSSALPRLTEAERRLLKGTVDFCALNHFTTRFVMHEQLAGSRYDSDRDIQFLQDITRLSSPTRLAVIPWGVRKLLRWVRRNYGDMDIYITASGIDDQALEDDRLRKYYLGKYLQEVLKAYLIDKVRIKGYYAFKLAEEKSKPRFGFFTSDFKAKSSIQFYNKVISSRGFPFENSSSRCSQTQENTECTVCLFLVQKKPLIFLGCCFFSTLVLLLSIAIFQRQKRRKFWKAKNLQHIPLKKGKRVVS

| FGF1 receptor potency [EC50] nM 0.1% HSA [nM] | FGF21 receptor potency [EC50] nM 0% HSA [nM] | Substance |
| --- | --- | --- |
| 0.44 | 0.52 | Met-FGF21 (Comparator) SEQ ID NO: 36 (from UniProt Q9NSA1 29-209) (ligand) |
| 10.1 | 2.5 | S{Beta-180}-[2-[2-[[2-[2-[2-[[2-[2-[2-[[(4S)-4-carboxy-4-(17-carboxyheptadecanoyl-amino)butanoyl]amino]ethoxy]ethoxy]acetyl]amino]ethoxy]ethoxy]acetyl]amino]-ethylamino]-2-oxoethyl]-Ala[Gln121,Leu168,Cys180]FGF21(1-181) (from UniProt Q9NSA1 28-209) (ligand) |

— patent publication US20240400635A1
